Bridges are numbered along the chain shown (N, C = ends). Where no end group is shown, it is not given here. [ ]: non-standard residue; d: D form.
B1: Odorranalectin (OL) (peptide)
peptide: YASPKCFRYPNGVLACT
modifications: disulfide 6-16
notes: Synthetic copy of the natural product; on-resin disulfide formation by I2 oxidation; also called unmodified OL; OL natural product

What was measured:
asialofetuin [1] = molecular target: T1, asialofetuin (UniProt P12763 19-359, limits assumed, glycoprotein; desialylated glycans, described as L-fucose bearing); test: ITC
T1 construct: also called L-fucose bearing asialofetuin; model glycoprotein
T1 sequence (looked up): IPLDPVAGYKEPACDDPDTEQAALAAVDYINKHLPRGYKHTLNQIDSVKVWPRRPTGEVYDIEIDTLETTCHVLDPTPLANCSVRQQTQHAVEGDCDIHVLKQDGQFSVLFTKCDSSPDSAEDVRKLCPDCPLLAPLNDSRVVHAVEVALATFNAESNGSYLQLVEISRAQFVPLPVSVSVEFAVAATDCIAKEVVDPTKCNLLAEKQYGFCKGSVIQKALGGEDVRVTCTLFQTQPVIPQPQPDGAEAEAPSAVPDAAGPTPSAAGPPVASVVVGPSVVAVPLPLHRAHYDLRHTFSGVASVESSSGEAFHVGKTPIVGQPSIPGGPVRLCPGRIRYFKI

asialofetuin [2] = molecular target: T1, asialofetuin; test: ITC, as cited in the text from Table 1; conflicts with Table 1, which prints 6.4 × 10^4 nM for OL and 4.2 × 10^4 nM for DADLE-OL
[3] = molecular target: T2, delta opioid receptor (DOR); test: protein binding radioassay
T2 construct: the library screen elsewhere used human clones in CHO cells

mu opioid receptor (MOR) = molecular target: T3, mu opioid receptor (MOR); test: protein binding radioassay
T3 construct: see m11 for the human receptor of the library screen

[4] = molecular target: T4, kappa opioid receptor (KOR); test: protein binding radioassay
T4 construct: see m12 for the human receptor of the library screen

Binder	Kd (asialofetuin [1]) [µM]	Kd (asialofetuin [2]) [µM]	Kd [3] [µM]	Kd (mu opioid receptor (MOR)) [µM]	Kd [4] [µM]
B1	64	42			
Y[dA]GF[dL]KCFRYPNGVLACT (disulfide 7-17) [DADLE-OL II]	33		0.275	0.123	1.08
RVFSLCNATYPYKGACP (disulfide 6-16) [Control peptide (scrambled OL sequence)]	760				
YASPKCFRY[dA]GF[dL]LACT (disulfide 6-16) [DADLE-OL]	42		0.064	3.54	

Reference: US20230295226A1 (FLORIDA ATLANTIC UNIVERSITY BOARD OF TRUSTEES, published 2023)
